Consider 52 sequences from the supplement of paper PMC10567573.

± gives the standard deviation.

A short description of this data set: protein stability index of a GFP-peptide fusion (GPS, HEK-293T) (PSI 1-6); higher = more stable.
The mark [1] stands for this setting: treatment: DMSO, c terminus: a fixed tail appended.
Setting [2] is: treatment: MLN4924 1 uM, 8 h, c terminus: a fixed tail appended.
Where [3] appears, read: treatment: DMSO, c terminus: native.
Setting [4] is: treatment: MLN4924 1 uM, 8 h, c terminus: native.
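Further: 24-mer peptide tiles fused after GFP, lentivirally expressed, FACS-sorted into six equal bins by GFP/DsRed ratio, decoded by Illumina sequencing, PSI is the read-weighted mean bin number.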

Take MIARCLLAVRSLRRVGGSRILLRM [NLN]: the protein stability index stood at 2.35 ± 0.74 under setting [1] and 2.05 ± 0.39 under setting [2].

Consider MISTYEFGKSFFQRLNQDRLLGG [SLC25A39], for which the protein stability index was found to be 3.21 ± 0.83 under setting [3] and 2.44 ± 0.27 under setting [4].

Take MITVQLPEVPANENIKGYYIIIVP [PTPRD]: the protein stability index runs as follows: under setting [1], 3 ± 0.77; under setting [2], 2.99 ± 0.62.

For MKFVPRYSLVLELSDSGAFRRSLH [APMAP], the protein stability index stood at 2.17 ± 0.54 under setting [1] and 2.03 ± 0.51 under setting [2].

Regarding MKYYIVHLKRHFMFRNHLCLVFEL [DYRK1B], the protein stability index is, setting by setting: under setting [1], 2.9 ± 0.53; under setting [2], 2.44 ± 0.63.

On to MLTTRVFSLVGKRAISTSVCVRAH [COX4I1], for which the protein stability index by setting is: under setting [1], 2.56 ± 0.64; under setting [2], 2.4 ± 0.59.

For the sequence MPHARTETSVGTYESHSTSELEDL [TPD52L3], the protein stability index is, setting by setting: under setting [1], 5.43 ± 0.18; under setting [2], 5.37 ± 0.3.

As for MQEKNPVHVIGVEEPSVGASMLFD [ZNF8], the protein stability index is, setting by setting: under setting [1], 4.41 ± 0.094; under setting [2], 4.34 ± 0.2.

On to MQENITKVIERGERLDELQDKSES [VAMP4], for which the protein stability index by setting is: under setting [1], 5.04 ± 0.37; under setting [2], 5.05 ± 0.41.

For MQRMIQQFAAEYTSKNSSTQDPSQ [LCOR], the protein stability index by setting is: under setting [1], 3.69 ± 0.41; under setting [2], 3.68 ± 0.45.

In the case of MRAQAQEQERRERREQAAAAPFPS [TFE3], the protein stability index amounted to 5.09 ± 0.26 under setting [1] and 4.91 ± 0.22 under setting [2].

MSAAQGWDRNRRRGGGAAGAGGGG [KLHDC10]: the protein stability index by setting is: under setting [1], 4.97 ± 0.27; under setting [2], 4.92 ± 0.25.

Take MSDRRENDMSPSNNVVPIHVPPTT [RAB11A]: the protein stability index runs as follows: under setting [1], 4.67 ± 0.17; under setting [2], 4.87 ± 0.12.

Consider MSPSMLTRNSPRGCRLPSISSTTC [SPATS1], for which the protein stability index reads like this: under setting [1], 2.97 ± 0.18; under setting [2], 3.03 ± 0.2.

As to MSVNVNRSVSDQFYRYKMPRLIAK [EIF5], the protein stability index was 2.52 ± 0.14 under setting [1] and 2.77 ± 0.29 under setting [2].

Take MTVKQYEAARLEYDAYRTDLEELS [ARFIP2]: the protein stability index by setting is: under setting [1], 3.84 ± 0.19; under setting [2], 3.97 ± 0.21.

In the case of MVMIRGNSGLKPKDNEFTSKPWHW [POMT2], the protein stability index runs as follows: under setting [1], 2.38 ± 0.26; under setting [2], 2.21 ± 0.25.

Turning to MYLSPPSIHCLGPIKLELLEPKAN [VPS39], the protein stability index by setting is: under setting [1], 2.26 ± 0.38; under setting [2], 2.41 ± 0.39.

Consider MYYRGSAAAIIVYDITKEETFSTL [RAB22A], for which the protein stability index was 2.75 ± 0.69 under setting [1] and 2.72 ± 0.84 under setting [2].

With NACATKEQKNHTFPRLNRNKYMVT [PLD5], the protein stability index runs as follows: under setting [1], 3.63 ± 0.3; under setting [2], 3.77 ± 0.41.

Turning to NAEMVQQTTYLEDRPMFMLQCAME [LOXL2], the protein stability index by setting is: under setting [1], 3.11 ± 0.25; under setting [2], 3 ± 0.1.

Consider NAFQETWYWHGDVNSNKVVMSGVK [LOXL2], for which the protein stability index reads like this: under setting [1], 2.75 ± 0.31; under setting [2], 2.84 ± 0.48.

In the case of NDTKKMYAMKYMNKQKCVERNEVR [STK32A], the protein stability index was 3.71 ± 0.2 under setting [1] and 3.97 ± 0.33 under setting [2].

For NEWRMVASMSKRRCGVGVSVLDDL [KLHL20], the protein stability index amounted to 2.27 ± 0.52 under setting [1] and 2.25 ± 0.34 under setting [2].

Sequence NGDVSAPSAILRTPESTKPGPVCQ [ANKRD40] displayed a protein stability index under setting [1] of 4.782 ± 0.036 and a protein stability index under setting [2] of 4.83 ± 0.13.

As to NGQKPLGAAEPITVKFANNPSQKT [ELAVL3], the protein stability index was determined as 4.85 ± 0.36 under setting [1] and 4.83 ± 0.23 under setting [2].

With NIAIMTEEPELSPAYLISEAMRRS [GFOD1], the protein stability index was 3.5 ± 0.27 under setting [1] and 3.72 ± 0.2 under setting [2].

For NLLEKFFEMKKGQCKDALEIYKRF [SNAP91], the protein stability index amounted to 2.41 ± 0.46 under setting [1] and 2.69 ± 0.8 under setting [2].

In the case of NPAPAAPCPLGEPKTQACSGSESP [MYCL], the protein stability index is, setting by setting: under setting [1], 5.57 ± 0.23; under setting [2], 5.63 ± 0.15.

Regarding NPFKERICRVFSTSPAKDSLSFED [CIB1], the protein stability index runs as follows: under setting [1], 2.77 ± 0.21; under setting [2], 2.75 ± 0.2.

For the sequence NPNLSNRRGSTPLHMAVERRVRGV [RIPK4], the protein stability index is 3.84 ± 0.56 under setting [1] and 4.47 ± 0.65 under setting [2].

For NPWNWGKLAEAYLNLGPALSAALA [C8orf76], the protein stability index runs as follows: under setting [1], 2.57 ± 0.26; under setting [2], 2.44 ± 0.15.

On to NQGLNVMVWNQNGKSPSITFEYTL [ADAMTSL2], for which the protein stability index reads like this: under setting [1], 3.01 ± 0.3; under setting [2], 2.64 ± 0.53.

For the sequence NQNNYRLLSCGKILTGCKNMLFQQ [ACSBG2], the protein stability index runs as follows: under setting [1], 2.9 ± 1.2; under setting [2], 2.3 ± 0.69.

Regarding NQVVSSTNGELNTDDPTAGRSNAP [CSNK1G3], the protein stability index was 5.41 ± 0.28 under setting [1] and 5.5 ± 0.17 under setting [2].

Turning to NRRLRALEEQGATWRHRETLIIAV [FATE1], the protein stability index came out at 2.46 ± 0.39 under setting [1] and 2.22 ± 0.15 under setting [2].

In the case of NSESWGWDIGRGKLYHQSKGPGAP [SPSB2], the protein stability index was determined as 3.63 ± 0.17 under setting [1] and 3.98 ± 0.25 under setting [2].

NSFGAILQGSLFGLAGLLPASYTA [SLC29A1] showed a protein stability index under setting [1] of 2.21 ± 0.27 and a protein stability index under setting [2] of 2.9 ± 0.84.

Regarding NSNGGNLNSPPGPHSAKTEEHTTI [CDC14A], the protein stability index by setting is: under setting [1], 5.28 ± 0.17; under setting [2], 5.49 ± 0.2.

On to NSVTAGDYSRPLHISTFINELDSG [TSN], for which the protein stability index is, setting by setting: under setting [1], 3.54 ± 0.19; under setting [2], 3.71 ± 0.18.

As for NTFFCHSNMCINNTLVCNGLQNCV [NETO1], the protein stability index is, setting by setting: under setting [1], 2.13 ± 0.41; under setting [2], 2.07 ± 0.38.

For NTLRCQLGDRLNVEVDAAPAVDLN [KRT33B], the protein stability index under setting [1] came out at 4.47 ± 0.19 and the protein stability index under setting [2] came out at 4.39 ± 0.22.

NTNSDPLDPSFPVEFVRHGDIIRL [POMT2] showed a protein stability index under setting [1] of 2.69 ± 0.38 and a protein stability index under setting [2] of 2.86 ± 0.28.

Turning to NVSVMHKSLDNMPNDEHWKALSRK [FBXO33], the protein stability index reads like this: under setting [1], 4.19 ± 0.089; under setting [2], 4.03 ± 0.14.

On to NYLAEHCPPLHIPGSMSEVQELCK [TNNI2], for which the protein stability index was 3.91 ± 0.19 under setting [1] and 3.78 ± 0.11 under setting [2].

With PCQKSPNGVRVFPPAMPPPATHLS [TRIM9], the protein stability index under setting [1] is 3.63 ± 0.31 and the protein stability index under setting [2] came to 3.78 ± 0.15.

PCSGSVSLQPRRSIAFRLRLASFD [GMCL1]: the protein stability index was found to be 2.58 ± 0.39 under setting [1] and 2.24 ± 0.27 under setting [2].

Take PCVRPGVSGSPVTQNHAASALPTG [FBF1]: the protein stability index runs as follows: under setting [1], 4.45 ± 0.26; under setting [2], 4.5 ± 0.06.

Turning to PCYSRQFITSCPCWLEILLNNPR [SMAD6], the protein stability index is 2.92 ± 0.28 under setting [3] and 2.77 ± 0.42 under setting [4].

Consider PDGVWAYNRGEHPIFVNSPTLDAP [SMAD6], for which the protein stability index was determined as 3.56 ± 0.34 under setting [1] and 3.62 ± 0.16 under setting [2].

Regarding PEEGQQPWLCGESFTLADVSLAVT [GDAP1], the protein stability index under setting [1] was 3.27 ± 0.23 and the protein stability index under setting [2] came out at 3.4 ± 0.21.

In the case of PFAPEPTPPTTTAEIATASASAST [SNAP91], the protein stability index by setting is: under setting [1], 5.37 ± 0.16; under setting [2], 5.41 ± 0.14.
